Measurements reported in the supplement of paper PMC10724198.
± gives the standard deviation of the averaged measurements.
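Further: PSI is a weighted mean of sequencing reads over stability bins, variants kept only with over 10 reads, mCherry proximal and sfGFP distal, peptide attached via GGGS linker.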

These sequences were tested on Saccharomyces cerevisiae (assay: protein stability index of tFT-peptide fusion (C-terminal peptide) (PSI (0-1 scale)); higher = more stable (slower turnover)). Settings: genetic background: wild type; temperature: 30 C.
Protocol: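 Multiplexed protein stability (MPS) profiling in S. cerevisiae. Random 12-aa peptides (tFT-X12 library) are fused to the C-terminus of a sfGFP-mCherry tandem fluorescent timer, after mCherry and a GGGS linker. Cells are FACS-sorted into 8 mCherry/sfGFP bins and deep-sequenced. The protein stability index (PSI) is the read-weighted bin average, scaled from 0 (unstable) to 1 (stable). Only peptides with >10 reads are reported; cells were grown at 30 °C in SC-His with glucose.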
In the case of IMDHKSNSDKWI, the protein stability index is reported as 0.7193 ± 0.0011. RHGDGGRGRVDG gave a protein stability index of 0.736 ± 0.1. VDRLDAACCIFC was tested, and the protein stability index was 0.601 ± 0.031. PRASPPPLPPSP showed a protein stability index of 0.717 ± 0.032. For SIFPLSLLLPLP, the protein stability index was 0.758 ± 0.05. For PDPPTQPTRRSR, the protein stability index was 0.686 ± 0.029. GDNRGLTRVGIE gave a protein stability index of 0.718 ± 0.053. With DPPHPPPSPLPA the protein stability index was 0.699 ± 0.02. With PGAGGLSLVVRR the protein stability index was 0.654 ± 0.053. In the case of GIGLYMWRNSKW, the protein stability index is reported as 0.796 ± 0.04. Sequence SSLLFVMSYGLL has a protein stability index of 0.661 ± 0.027. With PHHLLTAHPPPA the protein stability index was 0.668 ± 0.035. FSLLPYFPYALP was tested, and the protein stability index was 0.739 ± 0.089. GSLRLASAHGLV showed a protein stability index of 0.729 ± 0.02. Sequence LRPPLASLRFSP has a protein stability index of 0.78 ± 0.11. For SSSVPHFIFLPR, the protein stability index was 0.656 ± 0.028. For DFLSLPPISPLL, the protein stability index was 0.787 ± 0.15. With CTFSGLLEMAGR the protein stability index was 0.7253 ± 0.0024. Work on TLSFPFRPLRLA yielded a protein stability index of 0.48 ± 0.033. AGAGRLRGGGVN gave a protein stability index of 0.6767 ± 0.0017. In the case of WYWGGWMRGCGW, the protein stability index is reported as 0.75 ± 0.048. In the case of LYTISAGEDELN, the protein stability index is reported as 0.699 ± 0.018. RCAGCFDSAFSW was tested, and the protein stability index was 0.746 ± 0.012. With QIYRMKNRYNKS the protein stability index was 0.7 ± 0.038. With VFLISPSSFSPP the protein stability index was 0.738 ± 0.033. Sequence KSDSRISGTVVV has a protein stability index of 0.652 ± 0.059. IIRSKGTKSMHK was tested, and the protein stability index was 0.691 ± 0.013. For LISNTGTKWAMI, the protein stability index was 0.674 ± 0.053. With HSSRSPPPSPYA the protein stability index was 0.709 ± 0.042. VYLRSMLSLNIR showed a protein stability index of 0.676 ± 0.051. WAFYFPWSSSLM showed a protein stability index of 0.726 ± 0.036. Sequence SFVVFGSFFCFC has a protein stability index of 0.572 ± 0.018. Sequence PPSPLQGRICFV has a protein stability index of 0.698 ± 0.032. For SRPLFLSLFSSV, the protein stability index was 0.599 ± 0.14. VWRSTVRVSRAG showed a protein stability index of 0.763 ± 0.051. With EETTSNLGLKVN the protein stability index was 0.5617 ± 0.0014. Sequence PPSPSPPPYHFP has a protein stability index of 0.676 ± 0.023. LRYSPLLFLSVV gave a protein stability index of 0.513 ± 0.013. Work on TALFRLRRPRLR yielded a protein stability index of 0.801 ± 0.021. With PISLSFPPPLHP the protein stability index was 0.65 ± 0.017. TPVLPLSPFPPD was tested, and the protein stability index was 0.607 ± 0.059. In the case of RALLSPFYRFYV, the protein stability index is reported as 0.5956 ± 0.003. Sequence LYYSEKRIKNVN has a protein stability index of 0.643 ± 0.077. In the case of CAAIHFLLPTYP, the protein stability index is reported as 0.69 ± 0.054. LYRPFTAVPPSI showed a protein stability index of 0.816 ± 0.082. With ERGKREMRKNLT the protein stability index was 0.681 ± 0.018. In the case of EQSLRHKCRPSV, the protein stability index is reported as 0.596 ± 0.014. PSPPPSPPPRHF gave a protein stability index of 0.6924 ± 0.0046. NLGLSGRYAPCK gave a protein stability index of 0.689 ± 0.0072. For VVLCAALHRTYG, the protein stability index was 0.638 ± 0.012. GKLWTIIFPLFF gave a protein stability index of 0.503 ± 0.035. Work on VEYVRSGTLVSG yielded a protein stability index of 0.658 ± 0.06. KPQQKQEKLTNP showed a protein stability index of 0.736 ± 0.043. DYHPPRRMKEAG gave a protein stability index of 0.625 ± 0.028. With KKRNKNKKTKEE the protein stability index was 0.68 ± 0.0099. For GLDHRLALLYPS, the protein stability index was 0.736 ± 0.036. Work on FCGLCCDPNRVP yielded a protein stability index of 0.708 ± 0.036. With QSPATIPFASHR the protein stability index was 0.731 ± 0.014. Sequence PPPLPRPFPPFP has a protein stability index of 0.697 ± 0.019. GGGCARRRGGRV showed a protein stability index of 0.6958 ± 0.0049. For GMGWGTVGDING, the protein stability index was 0.709 ± 0.024. Work on KQRGSKVIIKVD yielded a protein stability index of 0.663 ± 0.011. LSTPPRLPQPSP showed a protein stability index of 0.703 ± 0.051. With PRLLPFPPPLDH the protein stability index was 0.735 ± 0.083. In the case of LFLRPSGLPTLL, the protein stability index is reported as 0.69 ± 0.083. EVVRTWAVVEGG gave a protein stability index of 0.646 ± 0.11. PPPPFLCSPFVA was tested, and the protein stability index was 0.6905 ± 0.00081. With GPEVRPTLTHNE the protein stability index was 0.623 ± 0.018. Work on SGVTISYQEGLR yielded a protein stability index of 0.677 ± 0.0091. For GSVCCLSLHCFV, the protein stability index was 0.62 ± 0.033. Sequence EPDISTRGPGWT has a protein stability index of 0.74 ± 0.026. LDLELNRRCRTS showed a protein stability index of 0.675 ± 0.06. For CLEEVVCRVRGA, the protein stability index was 0.643 ± 0.0096.
